Common to all, as to conditions: remark: other sources report otherwise
Assay [1] addresses (dCENP-A/dH4) dimer (Drosophila melanogaster), Q9V6Q2. The assay is described as follows: SEC-MALS; recombinant proteins; Superdex 200 10/300 Increase GL, 50 mM HEPES pH 8.0, 150 or 300 mM NaCl, 1 mM TCEP, 22°C, 100 μl of 1-5 mg/ml. A general note: SEC sorts molecules by how far they enter the pores of the column.
The target in assay [2] is T1, dCENP-A-GFP-LacI (Drosophila melanogaster), Q9V6Q2.
T1 chain: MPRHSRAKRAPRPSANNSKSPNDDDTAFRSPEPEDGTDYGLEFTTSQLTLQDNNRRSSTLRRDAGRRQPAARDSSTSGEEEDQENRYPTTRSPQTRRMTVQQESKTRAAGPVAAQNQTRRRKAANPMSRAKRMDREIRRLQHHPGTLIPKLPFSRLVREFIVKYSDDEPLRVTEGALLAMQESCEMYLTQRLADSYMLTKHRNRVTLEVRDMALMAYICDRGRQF
The assay is described as follows: LacI/LacO tethering and recruitment assay (immunofluorescence); as a1, but with a third Drosophila centromere protein (CAL1-V5, dCENP-A-HA or -V5, or HA-dCENP-C) co-expressed, as named in the row.

The target of assay [3] is T1, dCENP-A-GFP-LacI (Drosophila …). Kind of assay: LacI/LacO tethering and recruitment assay (immunofluorescence); bait fused to GFP-LacI tethered to chromosomal LacO arrays in human U2OS cells; HA- or V5-tagged prey transiently co-expressed; IF 48 h after transfection, prey intensity at the LacO spot or % of cells; no third Drosophila centromere protein co-expressed.
Assay [4] has as its target T2, GFP-LacI-dCENP-C (Drosophila melanogaster), Q9VHP9.
T2 chain: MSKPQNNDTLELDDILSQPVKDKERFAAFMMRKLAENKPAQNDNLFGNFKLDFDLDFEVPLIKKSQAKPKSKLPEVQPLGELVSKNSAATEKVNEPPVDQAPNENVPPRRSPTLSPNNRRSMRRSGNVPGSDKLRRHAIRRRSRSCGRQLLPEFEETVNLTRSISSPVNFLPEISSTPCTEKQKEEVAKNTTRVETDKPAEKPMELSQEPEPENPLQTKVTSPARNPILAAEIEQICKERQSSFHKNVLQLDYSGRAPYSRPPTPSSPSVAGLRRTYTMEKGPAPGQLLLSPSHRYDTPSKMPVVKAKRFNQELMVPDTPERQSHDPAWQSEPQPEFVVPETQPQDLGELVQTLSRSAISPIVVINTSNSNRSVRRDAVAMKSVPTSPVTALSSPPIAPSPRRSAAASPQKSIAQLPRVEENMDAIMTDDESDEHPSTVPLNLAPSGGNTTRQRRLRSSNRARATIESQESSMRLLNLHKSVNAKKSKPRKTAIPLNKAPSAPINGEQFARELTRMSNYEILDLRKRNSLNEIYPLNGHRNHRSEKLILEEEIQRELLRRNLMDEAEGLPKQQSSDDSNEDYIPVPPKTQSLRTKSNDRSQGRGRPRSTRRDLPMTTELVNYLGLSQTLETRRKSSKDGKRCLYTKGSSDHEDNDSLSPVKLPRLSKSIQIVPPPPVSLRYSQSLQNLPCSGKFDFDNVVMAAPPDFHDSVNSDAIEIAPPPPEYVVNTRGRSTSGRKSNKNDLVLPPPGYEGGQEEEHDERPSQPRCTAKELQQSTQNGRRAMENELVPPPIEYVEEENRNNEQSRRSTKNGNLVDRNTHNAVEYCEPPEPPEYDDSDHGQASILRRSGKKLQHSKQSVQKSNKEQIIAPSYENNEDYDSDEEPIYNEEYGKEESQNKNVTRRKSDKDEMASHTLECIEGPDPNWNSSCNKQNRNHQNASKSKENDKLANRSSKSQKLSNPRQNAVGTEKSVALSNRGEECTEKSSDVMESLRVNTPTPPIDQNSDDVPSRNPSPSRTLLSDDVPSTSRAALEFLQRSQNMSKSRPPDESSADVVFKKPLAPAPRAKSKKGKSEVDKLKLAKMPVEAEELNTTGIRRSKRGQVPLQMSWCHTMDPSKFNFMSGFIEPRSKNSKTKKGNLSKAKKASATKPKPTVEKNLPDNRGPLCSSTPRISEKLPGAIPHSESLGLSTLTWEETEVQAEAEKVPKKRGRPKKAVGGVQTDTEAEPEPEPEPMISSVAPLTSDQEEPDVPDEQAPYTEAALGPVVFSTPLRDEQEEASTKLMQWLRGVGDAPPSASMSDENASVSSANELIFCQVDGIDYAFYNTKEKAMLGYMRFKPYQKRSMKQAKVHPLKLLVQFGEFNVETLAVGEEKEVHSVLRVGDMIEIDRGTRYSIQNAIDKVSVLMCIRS
Kind of assay: LacI/LacO tethering and recruitment assay (immunofluorescence); as a1, but with a third Drosophila centromere protein (CAL1-V5, dCENP-A-HA or -V5, or HA-dCENP-C) co-expressed, as named in the row.

In assay [5] the target is T2, GFP-LacI-dCENP-C (Drosophila …). Kind of assay: LacI/LacO tethering and recruitment assay (immunofluorescence); bait fused to GFP-LacI tethered to chromosomal LacO arrays in human U2OS cells; HA- or V5-tagged prey transiently co-expressed; IF 48 h after transfection, prey intensity at the LacO spot or % of cells; no third Drosophila centromere protein co-expressed.

B1: recombinant CAL1(1-160), Q9VEN2 1-160 (domain or fragment)
chain: MANAVVDEETLEAMVYERSKAWSSKMADFASLEDGMEIDVAEFDNLFHGEDEDPDLDDVAKEAVEDNVPDEAKLEMGHINATSVTELTLILCANEDNEAKAEIEEILNQTVPVVEEHKRKWREAGLDRILDTFDEKQIEHHVGRWMRRHNSVYLEASPPK
With B1, the stoichiometry N ((dCENP-A/dH4) dimer per CAL1(1-160)) in assay [1] is 1.

B2: HA-dCENP-C, Q9VHP9 1-1411 (natural protein)
chain: T2 chain
In assay [2], B2 showed a % of cells with recruitment at LacO (with CAL1-V5) of 55 % cells. The % of cells with recruitment at LacO (without CAL1-V5) in assay [3] was determined as 17 % cells.

B3: dCENP-A-HA, Q9V6Q2 1-225 (natural protein)
chain: T1 chain
B3 gave a % of cells with localization at LacO (with CAL1-V5) in assay [4] of 73 % cells. Moreover, the % of cells with localization at LacO (without CAL1) in assay [5] was determined as 43 % cells.

Source of the values: PMC6900781.
